According to patent US20230085439A1:

Experiments:
[1] = biological target: hMPV 130-BV (human metapneumovirus); assay: biolayer interferometry, hMPV 130-BV on anti-penta-HIS biosensors; unit inferred
[2] = biological target: monomeric hMPV B2 F protein treated with trypsin (human metapneumovirus); assay: ELISA on coated antigen, mAb titrated; panel hMPV B2 F monomer (trypsin), key 6
[3] = biological target: trimeric hMPV B2 F protein treated with trypsin (human metapneumovirus); assay: ELISA on coated antigen, mAb titrated; panel hMPV B2 F trimer (trypsin), key 6
[4] = biological target: pre-fusion RSV F protein A2 SC-TM (respiratory syncytial virus) (UniProt P03420); assay: ELISA on coated antigen, mAb titrated; EC50 box, key 6

101F Fab
Kd [1]: 53 nM

DS7 (antibody)
EC50 [2]: 0.1 µg/mL | EC50 [3]: 0.18 µg/mL

MPE8 (antibody)
EC50 [4]: 0.087 µg/mL
